Four molecules from patent US20180312588A1 (KITE PHARMA, published 2018) can be followed below.

Changes are numbered by the printed parent chain.

T1: human CD19 (on Raji cells, CD19+ homo sapiens Burkitt's lymphoma) (human, UniProt P15391 20-556)
T1 construct: whole, on cells; also called B-lymphocyte antigen CD19; B4
T1 sequence (looked up): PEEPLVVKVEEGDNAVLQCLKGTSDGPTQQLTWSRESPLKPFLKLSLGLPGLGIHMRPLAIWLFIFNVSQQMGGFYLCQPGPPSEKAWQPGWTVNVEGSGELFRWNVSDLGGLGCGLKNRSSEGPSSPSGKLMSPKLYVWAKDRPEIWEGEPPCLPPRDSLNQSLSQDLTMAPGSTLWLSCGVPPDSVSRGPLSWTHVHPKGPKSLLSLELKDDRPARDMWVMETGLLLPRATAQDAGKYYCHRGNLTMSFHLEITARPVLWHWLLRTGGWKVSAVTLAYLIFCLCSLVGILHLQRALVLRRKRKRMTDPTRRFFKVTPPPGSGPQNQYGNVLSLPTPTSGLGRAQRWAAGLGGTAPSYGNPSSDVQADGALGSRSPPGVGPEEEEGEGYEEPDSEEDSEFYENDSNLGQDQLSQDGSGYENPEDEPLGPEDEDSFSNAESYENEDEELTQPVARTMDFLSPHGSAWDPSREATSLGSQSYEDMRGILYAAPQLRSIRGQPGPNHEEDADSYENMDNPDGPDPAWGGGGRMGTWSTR

B1: NS-scFv (scFv)
scFv: DIQMTQSPSSLSASVGDRVTITCRASQDISKYLNWYQQKPGKAVKLLIYHTSRLHSGVPSRFSGSGSGTDYTLTISSLQPEDIATYFCQQGNTLPYTFGGGTKLEIKGSTSGSGKPGSGEGSTKGQVQLQESGPGLVKPSETLSVTCTVSGVSLPDYGVSWIRQPPGKGLEWLGVIWGSETTYYNSALKSRLTISKDTSKNQVFLKMSSLTAADTAIYYCAKHYYYGGSYAMDYWGQGTLVTVSSHHHHHH
notes: leader left out here
B2: AS-scFv (scFv)
scFv: DIQMTQSPSTLSASVGDRVTITCRASQDISKYLNWYQQKPDQAPKLLIKHTSRLHSGVPSRFSGSGSGTDFTFTISSLQPEDIATYYCQQGNTLPYTFGQGTKLEIKGSTSGSGKPGSGEGSTKGQVQLQESGPGLVKPSGTLSLTCAVSGVSLPDYGVSWIRQPPGKGLEWIGVIWGSETTYYNSALKSRVTISRDNSKNTLYLQMNSLRAEDTAVYYCAKHYYYGGSYAMDYWGQGTLVTVSSHHHHHH
notes: leader left out here
B3: SS-scFv (scFv)
scFv: DIQMTQSPSFLSASVGDRVTITCRASQDISKYLNWYQQKPDQAPKLLIKHTSRLHSGVPSRFSGSGSGTDFTFTISSLQPEDIATYYCQQGNTLPYTFGQGTKLEIKGSTSGSGKPGSGEGSTKGEVQLVESGGGLVQPGRSLRLSCTASGVSLPDYGVSWVRQPPGKGLEWIGVIWGSETTYYNSALKSRFTISRDNSKNTLYLQMNSLRAEDTAVYYCAKHYYYGGSYAMDYWGQGTLVTVSSHHHHHH
notes: leader left out here
B4: JS-scFv (scFv)
scFv: B3 scFv with F10S, F71Y, F73L, I83F, V162I
notes: leader left out here

One test concerns the target T1, human CD19 (on Raji cells, CD19+ homo …). The test can be described thus: flow cytometry titration on Raji cells, anti-His FITC. How it is done:
(§1) In brief, Raji cells were cultured and harvested by centrifugation. About 3×10⁵ cells per well were washed with PBS twice and incubated in 200 μl of serial dilutions of scFvs for 30 minutes at 4° C. After washing with PBS, secondary antibody (5 μg/ml His Tag antibody [FITC]) was added to the cells and incubated for 30 minutes at 4° C. After washing with PBS, cells were analyzed for binding EC50 by using FACSCalibur™ and FlowJo software.
As for B1, the EC50 (as a rule, the concentration giving half of the maximal effect) stood at 34 nM.

The molecule B2 registered an EC50 of 53.1 nM.

In the case of B3, the midpoint of the response, the EC50, lay at 72.8 nM.

B4 yielded an EC50 of 66 nM.

The target is the same in a further test. Briefly: flow cytometry titration on Raji cells, anti-His FITC; scFv at log(nM) 3. The procedure: as §1
On the technique in general: Flow cytometry measures light scatter and fluorescence of single cells or particles in a stream.
As to B1, the “geometric mean (FACS titration)” value came to 61.9.

Regarding B2, the “geometric mean (FACS titration)” value is 62.4.

For the molecule B3, the “geometric mean (FACS titration)” value turned out to be 61.7.

Consider B4, for which the “geometric mean (FACS titration)” value came out at 59.7.

For the next test the target is unchanged. The test can be described thus: flow cytometry titration on Raji cells, anti-His FITC; scFv at log(nM) 0.137273. How it is done:
as §1
In the case of B1, the “geometric mean (FACS titration)” value turned out to be 15.7.

With B2, the “geometric mean (FACS titration)” value was determined as 14.2.

As to B3, the “geometric mean (FACS titration)” value is 13.9.

B4: the “geometric mean (FACS titration)” value came to 13.4.

The next test has the same target. Briefly: flow cytometry titration on Raji cells, anti-His FITC; scFv at log(nM) 0.614394. The procedure: as §1
Turning to B1, the “geometric mean (FACS titration)” value was determined as 15.5.

As to B2, the “geometric mean (FACS titration)” value turned out to be 14.

In the case of B3, the “geometric mean (FACS titration)” value amounted to 13.9.

As for B4, the “geometric mean (FACS titration)” value is 13.3.

The next test shares this target. The test can be described thus: flow cytometry titration on Raji cells, anti-His FITC; scFv at log(nM) 1.091515. How it is done: as §1
Take B1: the “geometric mean (FACS titration)” value stood at 15.1.

As for B2, the “geometric mean (FACS titration)” value turned out to be 14.5.

On to B3, for which the “geometric mean (FACS titration)” value was 14.6.

B4: the “geometric mean (FACS titration)” value was determined as 13.6.

The next test has the same target. Briefly: flow cytometry titration on Raji cells, anti-His FITC; scFv at log(nM) 1.568636. How it is done: as §1
With B1, the “geometric mean (FACS titration)” value was determined as 41.2.

For B2, the “geometric mean (FACS titration)” value worked out at 19.4.

As for B3, the “geometric mean (FACS titration)” value worked out at 19.3.

Turning to B4, the “geometric mean (FACS titration)” value was found to be 25.7.

Another test shares this target. Briefly: flow cytometry titration on Raji cells, anti-His FITC; scFv at log(nM) 2.045758. The procedure: as §1
As for B1, the “geometric mean (FACS titration)” value was 56.3.

For B2, the “geometric mean (FACS titration)” value was 62.4.

On to B3, for which the “geometric mean (FACS titration)” value turned out to be 51.4.

On to B4, for which the “geometric mean (FACS titration)” value worked out at 46.6.

The target is the same in another test. The test can be described thus: flow cytometry titration on Raji cells, anti-His FITC; scFv at log(nM) 2.522879. The procedure: as §1
Regarding B1, the “geometric mean (FACS titration)” value is 61.6.

Consider B2, for which the “geometric mean (FACS titration)” value is 63.9.

For B3, the “geometric mean (FACS titration)” value is 60.4.

Regarding B4, the “geometric mean (FACS titration)” value is 58.9.

A further test shares this target. Briefly: flow cytometry titration on Raji cells, anti-His FITC; scFv at log(nM) 3.477121. The procedure: as §1
Regarding B1, the “geometric mean (FACS titration)” value worked out at 60.7.

With B2, the “geometric mean (FACS titration)” value is 62.7.

B3: the “geometric mean (FACS titration)” value came out at 62.

With B4, the “geometric mean (FACS titration)” value turned out to be 60.2.
